Blank lines part the entries; values can stand above or below the binder they belong to.
Tests used:
[1] = target: murine CTLA4 on murine T-cells (C57BL/6 splenocytes) (mouse, UniProt P09793 36-223); test: cell-based or functional assay
[2] = target: T1, CTLA4-Fc MMP9 (MMP9-cleavable CTLA4-Fc mask; CTLA4-Fc_WT) (human); test: SPR, CTLA-4-MMP9-Fc coupled to the sensor chip and titrated with m-Lcn2-Fc; no dissociation observed
T1 construct: It was expressed in insect cells; also called CTLA-4-MMP9-Fc; CTLA4-MMP9-Fc
T1 sequence (chain, as listed by the source limits assumed): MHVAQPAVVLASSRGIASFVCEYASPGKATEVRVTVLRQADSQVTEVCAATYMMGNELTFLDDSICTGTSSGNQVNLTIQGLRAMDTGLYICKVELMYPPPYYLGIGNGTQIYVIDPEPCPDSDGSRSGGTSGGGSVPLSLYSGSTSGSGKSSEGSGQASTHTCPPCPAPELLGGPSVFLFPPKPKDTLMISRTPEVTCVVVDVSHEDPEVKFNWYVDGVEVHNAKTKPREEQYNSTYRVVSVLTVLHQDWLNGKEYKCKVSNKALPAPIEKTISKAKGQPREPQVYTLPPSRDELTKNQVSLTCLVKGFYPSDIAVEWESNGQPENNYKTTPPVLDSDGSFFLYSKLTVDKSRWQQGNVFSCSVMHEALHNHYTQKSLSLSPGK
Description: To verify that the m-Lcn2-Fc and CTLA-4-Fc form a 1:1 complex, we used analytical size exclusion chromatography (SEC) (FIG. 3 panel A). A definitive shift to earlier elution volumes was observed, consistent with a molecular mass of 200 kD, as expected. To verify an increase in the apparent affinity due to the energy additivity of bivalent-bivalent interaction, the mask, CTLA-4-MMP9-Fc, was coupled to a CMS sensor chip and titrated with the bivalent m-Lcn2-Fc. A substantial increase in affinity was observed. In fact, no dissociation was observed and thus no calculation could be completed for an apparent dissociation constant (FIG. 3 panel B). […] In an attempt to establish the off-rate, a competition assay was carried out. Specifically, the 1:1 m-Lcn2-Fc|CTLA-4-MMP9-Fc complex was isolated and incubated with 10 fold excess of Alexafluor-labeled CTLA-4-MMP9-Fc. The exchange by size exclusion chromatography was followed by monitoring at […]. After two weeks, less than 5% exchange was observed.
Surface Plasmon Resonance (SPR). SPR experiments were performed on a GE Biacore T100 instrument at 25° C. Ligands were amine coupled to CMS chips at 300 Rmax. Blank lanes were used as baseline control. Analyte titrations were prepared as serial dilutions in HBS-EP⁺ running buffer (10 mM Hepes pH 7.4, 150 mM NaCl, 3 mM EDTA, 0.05% v/v P20). […]

[3] = target: T2, CTLA-4-Fc (purchased from R&D systems) (human, UniProt P16410 37-162); test: SPR presumed; method not given; monovalent m-Lcn2 to CTLA-4
T2 construct: Bought reagent; also called human CTLA4; not shown: Fc part and linker of the commercial product are not described
T2 sequence (looked up): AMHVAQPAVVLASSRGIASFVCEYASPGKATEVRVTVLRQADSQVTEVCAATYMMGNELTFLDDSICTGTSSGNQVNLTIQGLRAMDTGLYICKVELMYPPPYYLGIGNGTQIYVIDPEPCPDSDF

[4] = target: T1, CTLA4-Fc MMP9 (MMP9-cleavable CTLA4-Fc …); test: SPR (Biacore T100), mLCN2 on CTLA4-Fc variant
Method: (§1) Surface Plasmon Resonance (SPR). SPR experiments were performed on a GE Biacore T100 instrument at 25° C. Ligands were amine coupled to CMS chips at 300 Rmax. Blank lanes were used as baseline control. Analyte titrations were prepared as serial dilutions in HBS-EP⁺ running buffer (10 mM Hepes pH 7.4, 150 mM NaCl, 3 mM EDTA, 0.05% v/v P20). Increasing concentrations of analytes were flowed over blank and ligand lanes at 50 μL/min. Regeneration buffer (1 M NaCl, 10 mM glycine pH 2.6) was flowed at 90 μL/min for 10 s. Data analyses were performed using Biacore T100 Evaluation Software, version 1.1.1 (GE Healthcare). Response reported as the difference between blank and peptide lanes.
(§2) TABLE 3 Kinetics of CTLA4-Fc mask variants, as measured by SPR. Binding kinetics of mLCN2 for each CTLA4-Fc variant was measured by SPR. Half-life time was calculated from equation: t_{1/2} = ln (2)/kd.

[5] = target: T3, CTLA4-Fc variant T51H (human); test: SPR (Biacore T100), mLCN2 on CTLA4-Fc variant
T3 construct: Whole fusion (CTLA4 extracellular domain, MMP9 linker, IgG1 Fc) with T51H; also called T51H CTLA-4
T3 sequence (chain, as listed by the source T51H T51H limits assumed): as the sequence (chain, as listed by the source limits assumed) above, with T51H counted along it
Method: as §1, §2

[6] = target: T4, CTLA4-Fc variant E31S R33E T51H (human); test: SPR (Biacore T100), mLCN2 on CTLA4-Fc variant
T4 construct: Whole fusion (CTLA4 extracellular domain, MMP9 linker, IgG1 Fc) with E31S, R33E and T51H; also called E31S, R33E, T51H CTLA-4
T4 sequence (chain, as listed by the source E31S R33E T51H E31S R33E T51H limits assumed): as the sequence (chain, as listed by the source limits assumed) above, with E31S, R33E, T51H counted along it
Method: as §1, §2

[7] = target: CTLA4-Fc variant Y52F (human); test: SPR (Biacore T100), mLCN2 on CTLA4-Fc variant
Sequence of CTLA4-Fc variant Y52F (human) (chain, as listed by the source Y52F Y52F limits assumed): as the sequence (chain, as listed by the source limits assumed) above, with Y52F counted along it
Method: as §1, §2

[8] = target: T5, CTLA4-Fc variant E31A R33A (human); test: SPR (Biacore T100), mLCN2 on CTLA4-Fc variant
T5 construct: Whole fusion (CTLA4 extracellular domain, MMP9 linker, IgG1 Fc) with E31A and R33A; also called E31A and R33A CTLA-4
T5 sequence (chain, as listed by the source E31A R33A E31A R33A limits assumed): as the sequence (chain, as listed by the source limits assumed) above, with E31A, R33A counted along it
Method: as §1, §2

[9] = target: T1, CTLA4-Fc MMP9 (MMP9-cleavable CTLA4-Fc …); test: calculated from SPR kd, t1/2 = ln(2)/kd
Method: as §1, §2

[10] = target: T3, CTLA4-Fc variant T51H; test: calculated from SPR kd, t1/2 = ln(2)/kd
Method: as §1, §2

[11] = target: T4, CTLA4-Fc variant E31S R33E T51H; test: calculated from SPR kd, t1/2 = ln(2)/kd
Method: as §1, §2

[12] = target: CTLA4-Fc variant Y52F (human); test: calculated from SPR kd, t1/2 = ln(2)/kd
Method: as §1, §2

[13] = target: T5, CTLA4-Fc variant E31A R33A; test: calculated from SPR kd, t1/2 = ln(2)/kd
Method: as §1, §2

[14] = target: T2, CTLA-4-Fc (purchased from R&D systems); test: calculated from the koff of the monovalent m-Lcn2 : CTLA-4 interaction

induction of IFN-γ production (Elispot) [1]: 10 fold
Kd [2]: ≤ 0.2 nM
B1: mLCN2-Fc (bivalent m-Lcn2 fused to human IgG1 Fc) (Fc fusion)
chain: QDSTSDLIPAPPLSKVPLQQNFQDNQFHGKWYVVGLAGNRILRDDQHPMNMYATIYELKEDKSYNVTSVISSHKKCEYTIATFVPGSQPGEFTLGNIKSYGDKTSYLVRVVSTDYNQYAVVFFKLAEDNAEFFAITIYGRTKELASELKENFIRFSKSLGLPENHIVFPVPIDQCIDG
notes: m-Lcn2 cDNA was subcloned N-terminal to a linker-Fc domain and expressed in insect cells; also called bivalent m-Lcn2-Fc; unmasked m-Lcn2-Fc; not shown: linker between m-Lcn2 and Fc; human IgG1 Fc fragment

koff [3]: 0.00051 s⁻¹
Kd [4]: 5.52 nM
koff [4]: 0.000201 s⁻¹
kon [4]: 36400 M⁻¹ s⁻¹
Kd [5]: 9.07 nM
koff [5]: 0.00022 s⁻¹
kon [5]: 24200 M⁻¹ s⁻¹
Kd [6]: 5600 nM
koff [6]: 0.025 s⁻¹
kon [6]: 4430 M⁻¹ s⁻¹
Kd [7]: 6.14 nM
koff [7]: 0.000215 s⁻¹
kon [7]: 35100 M⁻¹ s⁻¹
Kd [8]: 100 nM
koff [8]: 0.0011 s⁻¹
kon [8]: 11000 M⁻¹ s⁻¹
Calculated t1/2 [9]: 57.8 min
Calculated t1/2 [10]: 52.5 min
Calculated t1/2 [11]: 0.467 min
Calculated t1/2 [12]: 53.7 min
Calculated t1/2 [13]: 11.6 min
t1/2 (dissociation half-life, 0.693/KOFF) [14]: 22 min
B2: modified lipocalin2 (mLcn2), monovalent (designed binder)
chain: QDSTSDLIPAPPLSKVPLQQNFQDNQFHGKWYVVGLAGNRILRDDQHPMNMYATIYELKEDKSYNVTSVISSHKKCEYTIATFVPGSQPGEFTLGNIKSYGDKTSYLVRVVSTDYNQYAVVFFKLAEDNAEFFAITIYGRTKELASELKENFIRFSKSLGLPENHIVFPVPIDQCIDG
notes: Re-engineered human lipocalin 2 used as a CTLA-4 antagonist; also called monovalent mLCN2; monomeric mLCN2
